Results: the supplement of paper PMC12636428

Test system: Saccharomyces cerevisiae
Assay: transcriptional activation domain activity (GFP:mCherry ratio, weighted mean of sorted bins, harmonized to initial dataset scale) (arbitrary fluorescence ratio units); higher = stronger transcriptional activation
Details: beta-estradiol 1 µM; induction time 4 h
Summary of the method: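 Barcoded protein tiles fused to an estradiol-inducible synthetic transcription factor were integrated at the yeast URA3 locus, in diploids carrying a GFP reporter. Cultures were diluted 1:5 into SC with 1 uM beta-estradiol, held 4 hours at 30 °C, sorted into 8 bins by GFP:mCherry ratio, and barcodes sequenced. Tiles under 50 reads were discarded. Activation activity is the read-weighted mean of bin median fluorescence, averaged across barcodes, then linearly mapped onto the initial dataset scale.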

Sequence	transcriptional activation domain activity
MLGSARVWQKRACMGFSFSLVIVSFTPPHRLFSHVQLGSIVSLLFFVTLFNFM	20700
MLHAGVSNKIAKGWPKEGSCDRASFVHEGVLMMCQRSLVTFIVRSLLLMCYYF	36800
MLHGSGAVFGSGFLSLVSLVLWLISYYCCTWTWKGIFILSICFFNTCIYIECI	49800
MLHLAALSPLMLLVFLLFSLFFKFFATFIWLYIMAYILITTLIIVFRITLPAN	68500
MLHLPLFLLYFFFFSLLLYFSFFPSSFFFFLLSPPFPLLIFSLFLSFLLLFPP	40200
MLHLVTCISPSLYTSIFFLYLFHYFPSSHFLLNCRTSMHFSLSRLTFIYVLVL	50200
MLHPTIVYPFITHLLLLILLFSLLPRFSYDADMDFLLVFSSFVLLLCFPWFED	40400
MLHSISTYLIFPLLYLFILSFNIYHFFFFSLKIITILIFLHTFVLLLFSWRKY	60400
MLHSLYVVAISKSGILSSFVNPTTTTVHYTPFEISMIGYFNLVLIWLKLLILW	61300
MLHVVGGYSRVRTWVIFLFVFRIGGRAYIDWIGFFFMGFLHWIRFIVVMVLFL	41800
MLICLFVVFSPFFLFIFLYLSAYRLSFFNFSCFLLFLYLFLIHLLYFPLYFIF	61200
MLIFVLIVCISLGLAMSFDSLSLHLQLHRLFCIFCVIFILFAHSFSVGLSCYI	72000
MLIFYFYFYFYFYLNFFYFFSFVSGWFVLGKDVFVLFLFPFSLSGFSYFVFGY	46700
MLIGTVFLICSLNLCLLFLGWAWGCIVLYLDDLNILLLSCLFTFFLCTFTFFS	40900
MLIIGRIARWYIHPIAIVWFYLLHVSHFLYFLLVAEFQPRYIHVYLYLYLLST	47400
MLIILLSSLVLWRLGSPCFFYTLFLFYISERSISQLPPPPTLLSILFFFTFIA	53100
MLILLLLLLLLLLLLLLLIMIMIMILMIFLLLFMILIFLLVIMREFCWLWVLW	44900
MLILLYLSLLPILYFCTDGLIKDTLLYLHACGLIVWWHCPSSTGDMYGLRHFW	55800
MLINKLIVLRELCYSDDAAKQIVMYVISLFLSLIFYSFLPCLGLICLSILVPS	49100
MLIQSQPQPPPTKHTPLYFIPHFILLLLLALSPSLTLLTLSFFYLFLFCYLLV	20900
MLISLLVRLGLDIFMHLYMLLLHISQFSDLLHTRSFLLILFLISGASKRLFFF	51900

Sequence	transcriptional activation domain activity
MLIVSRAGFLAFLLCYLHFCSVVVHVFSLPIGQPVTGYGNGNSVNPRSPIVPS	52100
MLKLCFFCAFLFLFLIIYYIYIFCFFFPFSLPSFSFFSFIPALIFFFFVVVEP	48200
MLKLFWTISKVFGPSDLTLQERGHYMELIIALRFIQGWWQDRDLNGFLPLWVR	65000
MLLALRMFEELKLFFLSFVFLSQFFFFIYLFLVHYCKWRMVTLPYSVFTFFLV	44000
MLLAMGWKVATGLQTLSIFRRDGFLYFLVWINLINTMIVLFARPTLLFVTIFF	51900
MLLASGCWIQSTYGLFYKCLYFFYLAIFFDHFTFSLNNFLITQCRYPIISLFI	78000
MLLCLSFLCCYYDISNVSRCYCLFCCIILLFLSCSLLFWLAFSQFLRFFLISF	62000
MLLDPRVIPLIFSTLFLFLHFNFLPNFPPLPLSFHPRPTLLPPFCSLLFPLLF	80000
MLLFFSFSLCRFLFLSLLLVFLMDAFSFLCFLLIQPPLPCLRSFFSLFLIFVL	38900
MLLFIFWRLLYFFILGSLLRAQSRRKWLVRWCREHGFGPNPRRPRSGWVTFWV	59600
MLLFSKLYYEAVGVGCLSYFDFQSLQVWVLDICASWYFVLAFNSYFVVSLFFG	36200
MLLFYILLSFSISSFFVCSLSNMLFFYMHHLIYMLTIFFYLLFNPITPILFFV	51300
MLLGCRKRYSAHPFNDFLSFFIFYSSLFFYSLLSPFPFPPHSTPVTSFFILFY	53700
MLLGRHIFLYFILSFFLSFWLHTIPYLLLDFTYYHNPIISTLPTSYFFSIFLI	72200
MLLHLLPILCPDCIFSASITFAVLSFLLSPCPLLPFSLLPLLCFFISIILRSV	42100
MLLHVFRLIEIIEILWISCICAILLVVFVILEVCNLFVLGRKISFLMFCVWVI	54400
MLLICMSVWLCALSLCILRCRENFFVLMGDVFFFLASMWYGTVSQFVRRPLFH	48100
MLLIWLYALKTGFVLSAVVSFGFWYSISLFFMYFIGKPLFHDSFFLFFSSFFL	57200
MLLIWLYALKTGLVLSGSFLLAFGTQYPFFFMYFIGKPLFHDSFFLLSFLFFP	70200
MLLKRVHSKVYVQDCLLIGGRSIFVLDMHLFFKLLLFTAASIRNQTVIMLIFV	54100
MLLKVSEPFSLFVYISGSAITLFSFFKFLFSLFFLLLILFFFPLFFFFPIVIV	80000

Sequence	transcriptional activation domain activity
MLLLFVYPCSPLSHCSSFYSYYLIIKLLLFYDIKNLSFFFFLEYFDLWWLITI	78500
MLLLGYILYLFYYGRYLYGILAFYCFSLLYVTLLPFIFVSARLFLHFTQIGIR	53600
MLLLKCSLSWIIRKGIYRAKSVMYLWVVANECCSLSMAEWLFLHQSVCSICQC	58100
MLLLLIIRKVLILGKPFFINHLHILLYPDTVLSPFLLLSFPLTLPLSLLLLLL	106000
MLLLLITHIGIAILFVCWNPRFSCPNQSPDQQGTCRLFNMYILISSWIIPAFL	55600
MLLLLPLHMLLQRHTLPNFFTFFSIIIIFLFLFSFFFFLFFFFLLFFLLLPGG	76400
MLLLLYLILYLMMMLFAVCALISIYLCIYTLPLLSFPFFLALFYFILFLYVYL	45200
MLLLPFIPSYLTFFLIFLFVLFDFHFWFLFLFGLTFSCCCWTLSFCKTSLIWF	57700
MLLLPLSFPFLSFPFLSFPFLSFPFLSSPFLSLVFSVLVLFFIFLLLLLLLLL	34900
MLLLPYAVFCIISFFHSFLFFLLLGGWLGCIFYLRVVHMHWLVRWFVWLVHGG	65300
MLLLRVAGGRVMGCDVVGGFFFIFLFYLFIILGFVCCLVGWHVCWVFWFLVGF	54300
MLLLSPFFPFLLPSSLSFFFPFPFISTLLSFCLSDTLFNLARSFFIAFLSTLF	42600
MLLMPRLCPVYLIHFCMIYALHLVAPHLSFPLISSGFLIIFTLHYTSTLLTCL	49400
MLLNLRGHIDEHLQYIIATSFKLMDTAETFALRLANLEVLINTVLYNAAAALH	48600
MLLNMLMLWILYIFSVTTFSTFRYFIILPVPSLMDYSEFFRACMLGAFVLSPV	71000
MLLNVFFFFPSSILGSFLYTDLFYFGFFSLIMLFPFKLPCIQPTFFFFTPSFI	44500
MLLPFVCLLFFLLAFLFSLSLSALFCFSKRRLIPILFFIASLLLYNFVFPPFF	38400
MLLPVSYSWLPLLFIPTNASPAFIFLFFVCTYFLNRPCVYCSFLLLILFVTSC	42200
MLLRRAVSLGVEGFFIFFYFLLMGLHCICLRGSSPWVDMFLFFVFFVSLVGFF	72200
MLLSAHFIDFFLLLLLLLLLHLIVPLIFILHHSLLFFLVLPIVCNYFFSWLPV	78400
MLLSIWCHHFTFLFFFFFFFDHRFFCFFYSHLFYAVSYSFLLLLLLLYELLLV	47100

Sequence	transcriptional activation domain activity
MLLSLGPVLFSFGHPPLIHLCLVPHPVFFSYPFSLLFISPISSLDYFCFSFPF	45400
MLLSLYLLTPFFIDMLLALHPFTLLCVHLPTCPCILLSCFRSYPCLSLWFPFS	45900
MLLSMLYNSVGYQYLEDHCPQGGEYSDLLRNLINECEAILPSYEIIERYKNHF	39500
MLLSSLLCYFLNFSSSSHSVGGWFILPYGNRLLHVAFFPSLLLFRLFFFLWLA	52600
MLLTFFFPLYCTSSFRVTQFLYPFQTLLFTFVFQAYLLLFLLFLLLLLLCFSP	41000
MLLTLLLLYILRRCAHTSYIFFSHSGFDFGHLIWGWVSCRLLTFWFLLYSSLL	33100
MLLTLLWLFFFFFFFFFPNIPPGVLFTFPSFDLLFASWFISSICASPFFAQFP	56100
MLLTLQSYFFFLLMFLVNSVSLLSFFSIFVFIIFLRYGCRMLWWHLHCIYPIF	38000
MLLTVYMFIIVCTCLAQLKIQSLSFLIYYHYINLVLLLLIAGLLYGLSFVRFS	48500
MLLTVYMFIIVFSFFICYHYINLVLQILIAGLLYGLSYVRFSMNWIIYFYNQC	78400
MLLVSLVRVVHGFTVQQYIYTGQWLLYISLIFFLLHFPLVMKPITFLTILCLA	55100
MLLYTFILIVHIHRDLGSIDFVWKARNETASLRQRYLAVNYQLLFGVIKYLWA	33400
MLMAWVIHAKCSAVPQCPPRPAVRSYIGRITLSLIIRARCILEMIVFPTFICW	55600
MLMDLALTLDDLTVRSLSVVGASVFMAFTYATLPATLGWGTWFLLSVWTLIFY	64200
MLMFLRCGLGLRFGVLVCGCRSTFVCWSLQRAFANMLRARSLPWIFLAWVILL	76000
MLMGCLCSYLRPHSLGCEGCYLLLHSLFIYGLRLVIGRFMSWSFSLVSFLFFY	62100
MLMHASPRMPIVQIFFFIFIHLSPPPFPFFFSLILSHRYSISFFLSLFSLLYF	35800
MLMIVVNDTIFYITVISHILLAYYGLVTIDNGLLLSNPTWYCPLNYTLIATCI	61700
MLMLLGKHVLLLIKMISLMDPFQVNILLHRNNPFPAVSFFFYYSFCLFHILHF	55200
MLMTKYMCKGSRLIFIFFCVFRLSMLFTFFSIVSDSCLYWCRVISYLVLLMTL	63700
